According to patent US20240167012:

Key:
[1] = molecular target: T1, gluten immunogenic peptide 33-mer from α-gliadin
T1 chain: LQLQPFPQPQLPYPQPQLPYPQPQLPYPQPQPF

[2] = molecular target: T2, gluten immunogenic peptide 26-mer from γ-gliadin
T2 chain: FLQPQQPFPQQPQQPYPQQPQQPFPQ

[3] = molecular target: bovine serum albumin, P02769
Sequence of bovine serum albumin, P02769 (P02769 25-607): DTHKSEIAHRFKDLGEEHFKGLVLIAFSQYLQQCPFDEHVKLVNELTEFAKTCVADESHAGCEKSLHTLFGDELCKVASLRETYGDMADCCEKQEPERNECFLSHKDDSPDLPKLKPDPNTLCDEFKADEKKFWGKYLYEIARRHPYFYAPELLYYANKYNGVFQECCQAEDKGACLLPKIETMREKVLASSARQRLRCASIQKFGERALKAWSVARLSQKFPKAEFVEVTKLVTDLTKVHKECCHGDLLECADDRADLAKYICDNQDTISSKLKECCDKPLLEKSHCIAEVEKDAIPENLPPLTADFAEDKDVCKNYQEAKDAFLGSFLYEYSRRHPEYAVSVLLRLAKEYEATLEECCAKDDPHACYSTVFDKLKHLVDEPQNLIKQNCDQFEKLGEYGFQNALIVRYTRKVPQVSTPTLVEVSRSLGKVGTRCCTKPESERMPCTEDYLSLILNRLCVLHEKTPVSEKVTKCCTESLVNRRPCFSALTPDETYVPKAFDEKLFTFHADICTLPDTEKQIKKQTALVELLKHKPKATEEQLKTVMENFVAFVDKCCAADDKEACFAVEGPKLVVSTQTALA

B1: aspartic protease Rhodotorulapepsin (protein)
chain: SLTSYQNDNLWAGKITIGSPAQSFIMDFDTGSSDLWVPSSACSGSGCGTHARYTATSSSTSKAVTGKTLNVQYGDGSTASGPVYSDSVTVGGLTATGQTFGTATTLTGNFGSSPSDGLVGMAYPALSQLGVPPFFNTLWSEGRVAANSFSFRLATQNSAASELYLGGLNSAKYVAGTTGYTPVISQTYWAINTNVAVNGQAVSGLGTLAAIADTGTTLIVVPTADAQTFWASVPGAAPYSGGGGYYTFPCNQAPKVTFQFPGSLTKWATPYLNLGTVSYGSNQCVGAIVGQDAGLNAWILGDSFLKGVYTTFDFANNRVGFSKLA
- hydrolysis of the 33-mer, RP-HPLC (3 h, 37° C.) [1]: the optimal pH value for the hydrolysis reaction of the aspartic protease Rhodotorulapepsin on gluten immunogenic 33-mer is at pH 5.0
- hydrolysis of the 26-mer, RP-HPLC (3 h, 37° C.) [2]: the optimal pH value for the hydrolysis reaction of the aspartic protease Rhodotorulapepsin on gluten immunogenic 26-mer is at pH 3.0
- relative proteolytic activity on BSA at different pH (A280 after TCA) [3]: the maximum proteolytic activity of the aspartic protease Rhodotorulapepsin was found at pH 2.5
- relative proteolytic activity on BSA at different temperatures (A280 after TCA) [3]: the aspartic protease Rhodotorulapepsin still has relative activity of 93% at 40 °C
- hydrolysis of gliadin 7.5 mg/ml, SDS-PAGE (pH 3.0, 3 h) (gliadin): even only 250 µg/ml of aspartic protease Rhodotorulapepsin was included in the enzyme mixture, gliadin was completely hydrolyzed
- hydrolysis of gliadin at pH 2.5 to 7.0, R5 ELISA of residual gliadin (gliadin): the maximum activity of the aspartic protease Rhodotorulapepsin on gliadin was at pH 2.5
- hydrolysis of gliadin, SDS-PAGE (gliadin): gliadin had been hydrolyzed by the aspartic acid protease Rhodotorulapepsin after 0.5 hours of reaction under all of the three pH conditions of pH2.5, pH3.0, and pH5.0
- hydrolysis of gliadin, SDS-PAGE of residual gliadin (pH 3.0, 37° C., enzyme:gliadin 1:500) (gliadin): after reaction for 30 minutes, more than 90% of gliadin has been hydrolyzed
- relative activity to hydrolyze gliadin, ELISA of residual gliadin (pH 2.5, 1.5 h, pepsin 1 mg/ml plus Rhodotorulapepsin 0.05 mg/ml) (gliadin): the relative activity thereof is increased by 54% after adding the aspartic protease Rhodotorulapepsin
